Reference: publication PMC3281039, “Tetrahydrodipicolinate N-Succinyltransferase and Dihydrodipicolinate Synthase from Pseudomonas aeruginosa: Structure Analysis and Gene Deletion” (PLoS ONE, 2012)

Experiments:
[1] = molecular target: T1, tetrahydrodipicolinate N-succinyltransferase (DapD, PA3666) (Pseudomonas aeruginosa, UniProt G3XD76); assay: crystal structure at […] Å (co-crystallization), with succinate; assay type: binding; parameters: recombinant DapD; model residues 1–245 and 251–343
T1 sequence (G3XD76 1-344): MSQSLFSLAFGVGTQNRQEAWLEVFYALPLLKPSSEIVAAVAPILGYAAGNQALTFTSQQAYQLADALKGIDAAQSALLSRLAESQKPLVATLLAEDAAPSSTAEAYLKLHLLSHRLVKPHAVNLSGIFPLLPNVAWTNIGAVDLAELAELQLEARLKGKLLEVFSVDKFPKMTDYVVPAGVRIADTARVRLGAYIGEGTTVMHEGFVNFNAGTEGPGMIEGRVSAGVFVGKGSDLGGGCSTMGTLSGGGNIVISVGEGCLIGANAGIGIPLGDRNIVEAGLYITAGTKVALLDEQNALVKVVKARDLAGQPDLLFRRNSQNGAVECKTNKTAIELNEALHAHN

[2] = molecular target: T1, tetrahydrodipicolinate N-succinyltransferase (DapD, PA3666); assay: crystal structure at […] Å (soaking); IC50 in DTNB succinyltransferase assay; assay type: biochemical; parameters: recombinant DapD with Gly-Ser-His at the N-terminus after thrombin cleavage; residues 330–344 not modeled
[3] = molecular target: Tetrahydrodipicolinate N-succinyltransferase (DapD, PA3666) from Pseudomonas aeruginosa (Pseudomonas aeruginosa PAO1); assay: crystal structure; PaDapD, hanging drops, 19-20% PEG3350, 0.3-0.4 M succinate pH 6.2; tetragonal P4(1)2(1)2 (apo, CoA-succinate) and monoclinic P2(1) (apo, L-2AP, D-2AP) crystal forms
[4] = molecular target: Tetrahydrodipicolinate N-succinyltransferase (DapD, PA3666) from Pseudomonas aeruginosa (Pseudomonas aeruginosa PAO1); assay: SEC; analytical size exclusion chromatography, Superdex-200 10/30, 25 mM Tris-HCl pH 8.0, 150 mM NaCl; calibrated with chymotrypsinogen-A, ovalbumin, albumin, catalase, ferritin
[5] = molecular target: T1, tetrahydrodipicolinate N-succinyltransferase (DapD, PA3666); assay: crystal structure at […] Å with CoA; succinate from […] in the crystallization buffer; assay type: binding; parameters: recombinant DapD; model residues 1–245 and 251–343
purified protein = substrate: N[C@@H](CCCCC(=O)O)C(=O)O; assay: purified protein; assay type: biochemical, Pseudomonas aeruginosa; details: active site groove between two subunits of the homotrimer; two arginines (Arg181, Arg193), Asn209, Ala226, Glu221
[6] = molecular target: the molecule itself; assay: SEC; analytical size exclusion chromatography, Superdex-200 10/30, 25 mM Tris-HCl pH 8.0, 150 mM NaCl; calibrated with chymotrypsinogen-A, ovalbumin, albumin, catalase, ferritin

CC(C)(COP(=O)(O)OP(=O)(O)OC[C@H]1O[C@@H](n2cnc3c(N)ncnc32)[C@H](O)[C@@H]1OP(=O)(O)O)[C@@H](O)C(=O)NCCC(=O)NCCS [CoA, coenzyme A]
crystal structure at 2.40 Å (co-crystallization), with succinate [1]: Coenzyme A is bound in this narrow cleft formed at the interface of two adjacent subunits

N[C@H](CCCCC(=O)O)C(=O)O [D-2AP, D-2-aminopimelate]
IC50 [2]: > 20 mM

Tetrahydrodipicolinate N-succinyltransferase (DapD, PA3666) from Pseudomonas aeruginosa (enzyme)
stoichiometry N [3]: 3 | stoichiometry N [4]: 3

O=C(O)CCC(=O)O [succinate]
crystal structure at 2.40 Å with CoA; succinate from 0.4 M in the crystallizatio [5]: contains a succinate molecule bound next to the acceptor arm of the CoA in the active site cleft

B1: tetrahydrodipicolinate N-succinyltransferase (DapD, PA3666) (Pseudomonas aeruginosa PAO1) (protein)
chain: MSQSLFSLAFGVGTQNRQEAWLEVFYALPLLKPSSEIVAAVAPILGYAAGNQALTFTSQQAYQLADALKGIDAAQSALLSRLAESQKPLVATLLAEDAAPSSTAEAYLKLHLLSHRLVKPHAVNLSGIFPLLPNVAWTNIGAVDLAELAELQLEARLKGKLLEVFSVDKFPKMTDYVVPAGVRIADTARVRLGAYIGEGTTVMHEGFVNFNAGTEGPGMIEGRVSAGVFVGKGSDLGGGCSTMGTLSGGGNIVISVGEGCLIGANAGIGIPLGDRNIVEAGLYITAGTKVALLDEQNALVKVVKARDLAGQPDLLFRRNSQNGAVECKTNKTAIELNEALHAHN
notes: recombinant DapD with Gly-Ser-His at the N-terminus after thrombin cleavage; residues 330–344 not modeled
Km (purified protein): 7.0 mM

B2: Dihydrodipicolinate synthase (DapA, PA1010) from Pseudomonas aeruginosa (enzyme, Pseudomonas aeruginosa PAO1)
chain: MIAGSMVALVTPFDAQGRLDWDSLAKLVDFHLQEGTNAIVAVGTTGESATLDVEEHIQVIRRVVDQVKGRIPVIAGTGANSTREAVALTEAAKSGGADACLLVTPYYNKPTQEGMYQHFRHIAEAVAIPQILYNVPGRTSCDMLPETVERLSKVPNIIGIKEATGDLQRAKEVIERVGKDFLVYSGDDATAVELMLLGGKGNISVTANVAPRAMSDLCAAAMRGDAAAARAINDRLMPLHKALFIESNPIPVKWALHEMGLIPEGIRLPLTWLSPRCHEPLRQAMRQTGVLA
notes: Dihydrodipicolinate synthase DapA, locus PA1010, Pseudomonas aeruginosa PAO1; the gene coding for DapA was cloned in pNIC28Bsa4 by LIC; the final model holds residues 1-291 (chain A) and 2-291 (chains B, C, D); N-terminal His6 tag with TEV site from vector pNIC28Bsa4 (GenBank EF198106); also called PaDapA; source: E. coli BL21(DE3), purified (Ni-NTA, Sephadex G-25 desalting); not shown: His6, …
stoichiometry N [6]: 2
